POZ domain bound data for 26 substances are collected here from patent US7858322B2, “Method of determining inhibition of binding to TRPM7 protein” (NoNo, Inc., priority 2003, dated 2010).

Common to all, as to experiment: G assays, titrations or binding assays of peptides
One assay concerns the target T1, Syntrophin 1 alpha d1 (Homo sapiens, UniProt Q13424).
T1 construct: made in house; host or cells: E. coli (DH5α, BL21 or JM109)
T1 sequence (Q13424 84-177): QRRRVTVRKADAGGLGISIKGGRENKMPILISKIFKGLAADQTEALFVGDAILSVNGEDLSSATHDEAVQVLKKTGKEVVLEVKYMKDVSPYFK
The note with it: peptide demonstrated to bind syntrophin 1 alpha d1 in G assays. The protocol:
In one aspect, the invention provides an assay in which a GST/PDZ fusion protein is immobilized on a surface (G assay). The binding of labeled PL peptide (e.g., as listed in TABLE 2 and TABLE 4) to this surface is then measured. In a preferred embodiment, the assay is carried out as follows:
(1) A PDZ-domain polypeptide is bound to a surface, e.g. a protein binding surface. In a preferred embodiment, a GST/PDZ fusion protein containing one or more PDZ domains is bound to a polystyrene 96-well plate. […] In one embodiment, the GST/PDZ fusion protein is bound via an anti-GST antibody that is coated onto the 96-well plate. Adequate binding to the plate can be achieved when: • a. 100 μl per well of 5 μg/ml goat anti-GST polyclonal antibody (Pierce) in PBS is added to a polystyrene 96-well plate (e.g., Nunc Polysorp) at 4° C. for 12 hours. • b. The plate is blocked by addition of 200 μl per well of PBS/BSA for 2 hours at 4° C. • c. The plate is washed 3 times with PBS. • d. 50 μl per well of 5 μg/ml GST/PDZ fusion protein) or, as a negative control, GST polypeptide alone (i.e. not a fusion protein) in PBS/BSA is added to the plate for 2 hours at 4° C. • e. the plate is again washed 3 times with PBS.
(2) Biotinylated PL peptides are allowed to react with the surface by addition of 50 μl per well of 20 μM solution of the biotinylated peptide in PBS/BSA for 10 minutes at 4° C., followed by an additional 20 minute incubation at 25° C. The plate is washed 3 times with ice cold PBS.
(3) The binding of the biotinylated peptide to the GST/PDZ fusion protein surface can be detected using a variety of methods and detectors known to one of skill in the art. In one embodiment, 100 μl per well of 0.5 μg/ml streptavidin-horseradish peroxidase (HRP) conjugate dissolved in BSA/PBS is added and allowed to react for 20 minutes at 4° C. The plate is then washed 5 times with 50 mM Tris pH 8.0 containing 0.2% Tween 20, and developed by addition of 100 μl per well of HRP-substrate solution (TMB, Dako) for 20 minutes at room temperature (RT). The reaction of the HRP and its substrate is terminated by addition of 100 μl per well of 1 M sulfuric acid, and the optical density (O.D.) of each well of the plate is read at […].
(4) Specific binding of a PL peptide and a PDZ domain polypeptide is determined by comparing the signal from the well(s) in which the PL peptide and PDZ domain polypeptide are combined, with the background signal(s). The background signal is the signal found in the negative control(s). Typically a specific or selective reaction will be at least twice background signal, more typically more than 5 times background, and most typically 10 or more times the background signal. In addition, a statistically significant reaction will involve multiple measurements of the reaction with the signal and the background differing by at least two standard errors, more typically four standard errors, and most typically six or more standard errors. Correspondingly, a statistical test (e.g. a T-test) comparing repeated measurements of the signal with repeated measurements of the background will result in a p-value <0.05, more typically a p-value <0.01, and most typically a p-value <0.001 or less. As noted, in an embodiment of the G assay, the signal from binding of a given PL peptide to immobilized (surface bound) GST polypeptide alone is one suitable negative control (sometimes referred to as B1). Because all measurement are done in multiples (i.e. at least duplicate) the arithmetic mean (or, equivalently, average.) of several measurements is used in determining the binding, and the standard error of the mean is used in determining the probable error in the measurement of the binding. The standard error of the mean of N measurements equals the square root of the following: the sum of the squares of the difference between each measurement and the mean, divided by the product of (N) and (N−1). […]

The next assay addresses T2, RIM2 d1 (Homo sapiens, UniProt Q9UQ26).
T2 construct: made in house; host or cells: E. coli (DH5α, BL21 or JM109)
T2 sequence (Q9UQ26 632-757): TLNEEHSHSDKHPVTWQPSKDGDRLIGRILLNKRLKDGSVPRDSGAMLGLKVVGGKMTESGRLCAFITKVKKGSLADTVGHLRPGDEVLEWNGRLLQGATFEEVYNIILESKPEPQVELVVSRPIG
The note with it: peptide demonstrated to bind RIM2 d1 in G assays.

The target in the next assay is T3, INADL d3 (Homo sapiens, UniProt Q8NI35).
T3 construct: made in house; host or cells: E. coli (DH5α, BL21 or JM109)
T3 sequence (Q8NI35 with tags, fused parts or gaps): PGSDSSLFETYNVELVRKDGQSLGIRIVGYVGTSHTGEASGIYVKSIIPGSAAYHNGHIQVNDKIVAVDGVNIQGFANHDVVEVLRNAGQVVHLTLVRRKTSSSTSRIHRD
The note with it: peptide demonstrated to bind INADL d3 in G assays.

The next assay deals with T4, PAR3 d3 (Homo sapiens, UniProt Q8TEW0, R682S).
T4 construct: made in house; host or cells: E. coli (DH5α, BL21 or JM109)
T4 sequence (Q8TEW0 with tags, fused parts or gaps R682S): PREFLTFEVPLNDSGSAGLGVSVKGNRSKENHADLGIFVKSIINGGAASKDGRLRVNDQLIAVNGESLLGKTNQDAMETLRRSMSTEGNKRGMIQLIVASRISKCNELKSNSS
The note with it: peptide demonstrated to bind PAR3 d3 in G assays.

The target of a further assay is T5, ZO-1 d2 (Homo sapiens, UniProt Q07157, DEL264-264).
T5 construct: made in house; host or cells: E. coli (DH5α, BL21 or JM109)
T5 sequence (Q07157 with tags, fused parts or gaps DEL264-264): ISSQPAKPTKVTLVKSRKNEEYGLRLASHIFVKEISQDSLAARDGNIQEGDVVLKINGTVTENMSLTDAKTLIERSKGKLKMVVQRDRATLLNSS
The note with it: peptide demonstrated to bind ZO-1 d2 in G assays.

No end group written: not given here. *: point of attachment. Biotin = O=C1N[C@H]2[C@H](CS[C@H]2CCCCC(=O)*)N1

Experimental for INADL d3: (§1) In one aspect, the invention provides an assay in which a GST/PDZ fusion protein is immobilized on a surface (G assay). […] In a preferred embodiment, the assay is carried out as follows:
(§2) (3) The binding of the biotinylated peptide to the GST/PDZ fusion protein surface can be detected using a variety of methods and detectors known to one of skill in the art. In one embodiment, 100 μl per well of 0.5 μg/ml streptavidin-horseradish peroxidase (HRP) conjugate dissolved in BSA/PBS is added and allowed to react for 20 minutes at 4° C. The plate is then washed 5 times with 50 mM Tris pH 8.0 containing 0.2% Tween 20, and developed by addition of 100 μl per well of HRP-substrate solution (TMB, Dako) for 20 minutes at room temperature (RT). The reaction of the HRP and its substrate is terminated by addition of 100 μl per well of 1 M sulfuric acid, and the optical density (O.D.) of each well of the plate is read at 450 um.
(§3) (4) Specific binding of a PL peptide and a PDZ domain polypeptide is determined by comparing the signal from the well(s) in which the PL peptide and PDZ domain polypeptide are combined, with the background signal(s). […] Typically a specific or selective reaction will be at least twice background signal, more typically more than 5 times background, and most typically 10 or more times the background signal. […] Correspondingly, a statistical test (e.g. a T-test) comparing repeated measurements of the signal with repeated measurements of the background will result in a p-value <0.05, more typically a p-value <0.01, and most typically a p-value <0.001 or less. As noted, in an embodiment of the G assay, the signal from binding of a given PL peptide to immobilized (surface bound) GST polypeptide alone is one suitable negative control (sometimes referred to as B1). Because all measurement are done in multiples (i.e. at least duplicate) the arithmetic mean (or, equivalently, average.) of several measurements is used in determining the binding, and the standard error of the mean is used in determining the probable error in the measurement of the binding. The standard error of the mean of N measurements equals the square root of the following: the sum of the squares of the difference between each measurement and the mean, divided by the product of (N) and (N−1). Thus, in one embodiment, specific binding of the PDZ protein to the platebound peptide is determined by comparing the mean signal (“mean S”) and standard error of the signal (“SE”) for a particular PL-PDZ combination with the mean B1.
Experimental for PAR3 d3: as §1, §2, §3
Experimental for RIM2 d1: as §1, §2, §3
Experimental for ZO-1 d2: as §1, §2, §3

On to AAGGRSARGGRLQGRRETAL, for which the POZ domain bound entry on Syntrophin 1 alpha d1 was “Syntrophin 1 alpha D1”.
In the case of AVGGRPARGGRLQGRRQTQV, the POZ domain bound entry on Syntrophin 1 alpha d1 is “Syntrophin 1 alpha D1”.
“DFRPSFKHILFRRARRGFRQ (Biotin-DFRPSFKHILFRRARRGFRQ)”: the POZ domain bound result with RIM2 d1 is on record as “RIM2 D1”; with INADL d3, “INADL D3”; in the assay with PAR3 d3, “PAR3 D3”; with ZO-1 d2 it was “ZO-1 D2”; with Syntrophin 1 alpha d1, “Syntrophin 1 alpha D1”.
In the case of “DTLLLTENEGDKTEEQVSYV (Biotin-DTLLLTENEGDKTEEQVSYV)”, the POZ domain bound result in the assay with PAR3 d3 is “PAR3 D3”; with Syntrophin 1 alpha d1 it was “Syntrophin 1 alpha D1”.
As to “FNGSSNGHVYEKLSSIESDV (Biotin-FNGSSNGHVYEKLSSIESDV)”, in the assay with Syntrophin 1 alpha d1, the POZ domain bound entry is given as “Syntrophin 1 alpha D1”.
“GRWTGRAMSAWKPTRRETEV (Biotin-GRWTGRAMSAWKPTRRETEV)”: the POZ domain bound entry with INADL d3 is “INADL D3”; with Syntrophin 1 alpha d1, “Syntrophin 1 alpha D1”.
In the case of “HDFRRAFKKILARGDRKRIV (Biotin-HDFRRAFKKILARGDRKRIV)”, the POZ domain bound result with RIM2 d1 is listed as “RIM2 D1”; in the assay with INADL d3 it was “INADL D3”; in the assay with PAR3 d3 it was “PAR3 D3”; with ZO-1 d2 it was “ZO-1 D2”; with Syntrophin 1 alpha d1 it was “Syntrophin 1 alpha D1”.
As to “HHLVAQRDIRQFQLQHWLAI (Biotin-HHLVAQRDIRQFQLQHWLAI)”, the POZ domain bound result was “RIM2 D1” in the assay with RIM2 d1; “INADL D3” in the assay with INADL d3; “PAR3 D3” with PAR3 d3; “ZO-1 D2” in the assay with ZO-1 d2; “Syntrophin 1 alpha D1” with Syntrophin 1 alpha d1.
As for “HSCCNRARQERLQRRRETQV (Biotin-HSCCNRARQERLQRRRETQV; cysteine pairing not given here)”, the POZ domain bound entry in the assay with INADL d3 is “INADL D3”; with PAR3 d3 it was “PAR3 D3”; in the assay with ZO-1 d2, “ZO-1 D2”; in the assay with Syntrophin 1 alpha d1 it was “Syntrophin 1 alpha D1”.
“ILNSIQVMRAQMNQIQSVEV (Biotin-ILNSIQVMRAQMNQIQSVEV)”: the POZ domain bound result is “INADL D3” with INADL d3, “PAR3 D3” with PAR3 d3, “ZO-1 D2” with ZO-1 d2 and “Syntrophin 1 alpha D1” in the assay with Syntrophin 1 alpha d1.
On to “KKKKQPGNSTKESESTNSVRLML (Biotin-KKKKQPGNSTKESESTNSVRLML)”, for which the POZ domain bound result was “RIM2 D1” in the assay with RIM2 d1; “INADL D3” with INADL d3; “PAR3 D3” with PAR3 d3; “ZO-1 D2” with ZO-1 d2; “Syntrophin 1 alpha D1” with Syntrophin 1 alpha d1.
Take “LAVLAYSITLVMLWSIWQYA (Biotin-LAVLAYSITLVMLWSIWQYA)”: the POZ domain bound entry with RIM2 d1 is on record as “RIM2 D1”; in the assay with INADL d3, “INADL D3”; with PAR3 d3, “PAR3 D3”; with ZO-1 d2, “ZO-1 D2”; in the assay with Syntrophin 1 alpha d1, “Syntrophin 1 alpha D1”.
Consider “PIPAGGCTFSGIFPTLTSPL (Biotin-PIPAGGCTFSGIFPTLTSPL)”, for which the POZ domain bound result with INADL d3 is listed as “INADL D3”; with PAR3 d3, “PAR3 D3”; in the assay with Syntrophin 1 alpha d1, “Syntrophin 1 alpha D1”.
As to “PYSELNYETSHYPASPDSWV (Biotin-PYSELNYETSHYPASPDSWV)”, the POZ domain bound result with Syntrophin 1 alpha d1 is given as “Syntrophin 1 alpha D1”.
Consider “QDFRRAFRRILARPWTQTAW (Biotin-QDFRRAFRRILARPWTQTAW)”, for which the POZ domain bound result was “RIM2 D1” with RIM2 d1; “INADL D3” in the assay with INADL d3; “PAR3 D3” with PAR3 d3; “ZO-1 D2” with ZO-1 d2; “Syntrophin 1 alpha D1” with Syntrophin 1 alpha d1.
Turning to QISPGGLEPPSEKHFRETEV, in the assay with Syntrophin 1 alpha d1, the POZ domain bound result was “Syntrophin 1 alpha D1”.
In the case of “RELVDRGEVRQFTLRHWLKV (Biotin-RELVDRGEVRQFTLRHWLKV)”, the POZ domain bound result in the assay with RIM2 d1 is recorded as “RIM2 D1”; in the assay with INADL d3, “INADL D3”; with PAR3 d3, “PAR3 D3”; with ZO-1 d2 it was “ZO-1 D2”; with Syntrophin 1 alpha d1, “Syntrophin 1 alpha D1”.
With “SSKSKSSEESQTFFGLYKL (Biotin-SSKSKSSEESQTFFGLYKL)”, the POZ domain bound entry in the assay with RIM2 d1 was “RIM2 D1”; with INADL d3 it was “INADL D3”; with PAR3 d3, “PAR3 D3”; with ZO-1 d2, “ZO-1 D2”; with Syntrophin 1 alpha d1, “Syntrophin 1 alpha D1”.
Turning to “TFKGTPTAENPEYLGLDVPV (Biotin-TFKGTPTAENPEYLGLDVPV)”, in the assay with Syntrophin 1 alpha d1, the POZ domain bound result is “Syntrophin 1 alpha D1”.
For “TGSALQAWRHTSRQATESTV (Biotin-TGSALQAWRHTSRQATESTV)”, in the assay with Syntrophin 1 alpha d1, the POZ domain bound result is reported as “Syntrophin 1 alpha D1”.
As for “TQGFPGPATWRRISSLESEV (Biotin-TQGFPGPATWRRISSLESEV)”, the POZ domain bound result with INADL d3 was “INADL D3”; in the assay with Syntrophin 1 alpha d1, “Syntrophin 1 alpha D1”.
“VHDAESSOEDGYDWGPATDL: peptide, SEQ ID NO:330 (Biotin-VHDAESSDEDGYDWGPATDL)”: in the assay with Syntrophin 1 alpha d1, the POZ domain bound result is “Syntrophin 1 alpha D1”.
Take “VHKVRNKFKAKCSLCRLYII (Biotin-VHKVRNKFKAKCSLCRLYII; cysteine pairing not given here)”: the POZ domain bound result in the assay with RIM2 d1 is given as “RIM2 D1”; in the assay with INADL d3, “INADL D3”; in the assay with PAR3 d3 it was “PAR3 D3”; in the assay with ZO-1 d2 it was “ZO-1 D2”; with Syntrophin 1 alpha d1 it was “Syntrophin 1 alpha D1”.
In the case of “VPGALDYAAFSSALYGESDL (Biotin-VPGALDYAAFSSALYGESDL)”, the POZ domain bound entry with Syntrophin 1 alpha d1 is given as “Syntrophin 1 alpha D1”.
“YGRKKRRQRRRKLSSIESDV (Biotin-YGRKKRRQRRRKLSSIESDV)”: the results for the POZ domain bound result with PAR3 d3, with ZO-1 d2 and in the assay with Syntrophin 1 alpha d1 were “PAR3 D3”, “ZO-1 D2” and “Syntrophin 1 alpha D1”, respectively.
With YGRKKRRQRRRNDNIALLVQ, the POZ domain bound entry on RIM2 d1 is given as “RIM2 D1”; at PAR3 d3, “PAR3 D3”; on ZO-1 d2 it was “ZO-1 D2”; on Syntrophin 1 alpha d1, “Syntrophin 1 alpha D1”.
